Assay results taken from publication PMC6941110, “Mutation of Aspartate 238 in FAD Synthase Isoform 6 Increases the Specific Activity by Weakening the FAD Binding” (International Journal of Molecular Sciences, 2019).

Tests used:
Assay in all cases: purified protein
Type in all cases: biochemical, Homo sapiens
[1] = system: T1, Cc1cc2nc3c(=O)[nH]c(=O)nc-3n(C[C@H](O)[C@H](O)[C@H](O)COP(=O)(O)O)c2cc1C; conditions: forward reaction, 100 µM ATP, 5 mM MgCl2, 50 mM Tris/HCl pH 7.5, 37 °C
T1 construct: 320-residue isoform 6, FADSy domain only, lacks N-terminal FADHy domain; monomer

[2] = system: T2, Nc1ncnc2c1ncn2[C@@H]1O[C@H](COP(=O)(O)OP(=O)(O)OP(=O)(O)O)[C@@H](O)[C@H]1O; conditions: forward reaction, 5 mM MgCl2, 50 mM Tris/HCl pH 7.5, 37 °C
T2 construct: 320-residue isoform 6, FADSy domain only, lacks N-terminal FADHy domain; monomer

[3] = system: T3, O=P(O)(O)OP(=O)(O)O; conditions: reverse reaction, 0.5 µM FAD, 5 mM MgCl2, 50 mM Tris/HCl pH 7.5, 37 °C
T3 construct: 320-residue isoform 6, FADSy domain only, lacks N-terminal FADHy domain; monomer

Sequence of hFADS6 (human FAD synthase isoform 6) (Homo sapiens) (chain, as listed by the source): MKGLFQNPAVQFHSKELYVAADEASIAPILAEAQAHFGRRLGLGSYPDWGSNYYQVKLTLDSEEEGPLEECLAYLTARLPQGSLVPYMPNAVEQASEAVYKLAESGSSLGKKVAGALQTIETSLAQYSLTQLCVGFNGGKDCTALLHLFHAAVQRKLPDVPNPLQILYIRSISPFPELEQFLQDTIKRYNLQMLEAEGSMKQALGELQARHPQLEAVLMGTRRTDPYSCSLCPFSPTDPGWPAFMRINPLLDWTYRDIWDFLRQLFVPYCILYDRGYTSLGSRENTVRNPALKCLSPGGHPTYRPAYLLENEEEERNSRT
Sequence of hFADS6 (human FAD synthase isoform 6) (Homo sapiens; D505A) (chain, as listed by the source D505A): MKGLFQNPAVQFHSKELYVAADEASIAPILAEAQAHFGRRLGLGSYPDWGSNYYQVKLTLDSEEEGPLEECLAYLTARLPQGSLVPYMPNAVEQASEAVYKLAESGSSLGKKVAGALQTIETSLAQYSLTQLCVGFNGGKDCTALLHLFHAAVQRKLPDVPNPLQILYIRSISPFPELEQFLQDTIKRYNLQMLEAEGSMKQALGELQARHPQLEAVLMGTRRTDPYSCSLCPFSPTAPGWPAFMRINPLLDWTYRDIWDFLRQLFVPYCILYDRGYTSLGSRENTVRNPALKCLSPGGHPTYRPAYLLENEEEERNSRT

Substance	Km [1] [µM]	kcat [1] [s⁻¹]	Km ([2]; 2 µM FMN) [µM]	kcat ([2]; 2 µM FMN) [s⁻¹]	Km [3] [µM]	Km ([2]; 3 µM FMN) [µM]	kcat ([2]; 3 µM FMN) [s⁻¹]
hFADS6 (human FAD synthase isoform 6) (Homo sapiens)	0.13 ± 0.01	0.047 ± 0.001	6.9 ± 0.5	0.050 ± 0.001	42 ± 6	–	–
hFADS6 (human FAD synthase isoform 6) (Homo sapiens; D505A)	1.3 ± 0.3	0.103 ± 0.007	–	–	60 ± 8	44 ± 4	0.093 ± 0.003
